Assay results published in US20210380675A1 (Kyowa Kirin, published 2021).

Tests used:
Test in all cases: cell-based or functional assay
[1] = target: T1, IL-36 receptor (heterodimer of IL-36R and IL-1RAcP) on human cells (human, UniProt Q9HB29 20-575; Q9NPH3 21-570)
T1 sequence (looked up) 1: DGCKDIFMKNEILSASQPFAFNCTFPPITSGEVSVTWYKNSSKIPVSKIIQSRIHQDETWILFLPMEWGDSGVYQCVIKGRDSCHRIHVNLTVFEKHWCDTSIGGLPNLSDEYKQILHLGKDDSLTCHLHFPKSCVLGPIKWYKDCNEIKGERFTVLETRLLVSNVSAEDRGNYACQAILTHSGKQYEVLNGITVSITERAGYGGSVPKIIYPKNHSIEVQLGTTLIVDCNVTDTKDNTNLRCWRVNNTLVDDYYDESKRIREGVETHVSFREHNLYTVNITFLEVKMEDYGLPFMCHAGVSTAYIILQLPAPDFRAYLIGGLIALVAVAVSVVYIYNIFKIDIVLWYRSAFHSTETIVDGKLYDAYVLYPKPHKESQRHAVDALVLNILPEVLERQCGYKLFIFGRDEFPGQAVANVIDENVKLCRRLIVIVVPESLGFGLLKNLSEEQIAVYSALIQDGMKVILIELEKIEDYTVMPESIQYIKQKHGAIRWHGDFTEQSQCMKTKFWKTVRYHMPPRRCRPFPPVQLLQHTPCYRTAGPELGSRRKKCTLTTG
T1 sequence (looked up) 2: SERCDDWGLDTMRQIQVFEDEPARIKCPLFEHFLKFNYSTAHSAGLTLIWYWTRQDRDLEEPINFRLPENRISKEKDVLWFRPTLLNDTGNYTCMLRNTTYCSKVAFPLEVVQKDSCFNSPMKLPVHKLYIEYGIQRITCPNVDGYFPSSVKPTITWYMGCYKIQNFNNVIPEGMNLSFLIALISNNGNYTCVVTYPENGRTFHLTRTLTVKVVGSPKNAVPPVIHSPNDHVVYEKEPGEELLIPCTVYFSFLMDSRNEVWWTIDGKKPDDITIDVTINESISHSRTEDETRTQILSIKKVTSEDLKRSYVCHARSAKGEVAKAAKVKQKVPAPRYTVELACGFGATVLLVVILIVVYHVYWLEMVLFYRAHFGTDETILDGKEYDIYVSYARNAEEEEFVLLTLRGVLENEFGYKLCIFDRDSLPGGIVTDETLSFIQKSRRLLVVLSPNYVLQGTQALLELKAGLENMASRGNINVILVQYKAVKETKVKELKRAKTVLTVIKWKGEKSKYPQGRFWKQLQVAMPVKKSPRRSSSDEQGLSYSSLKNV

[2] = target: T1, IL-36 receptor (heterodimer of IL-36R …); remark: listed apart in the source
[3] = target: T1, IL-36 receptor (heterodimer of IL-36R …); remark: listed apart in the source
[4] = target: T1, IL-36 receptor (heterodimer of IL-36R …); remark: listed apart in the source

IC50 of IL-8 secretion, HaCaT, 10 nM cynomolgus IL-36α, FIG. 2A [1]: 0.0218 µM | IC50 of IL-8 secretion, HaCaT, 10 nM cynomolgus IL-36α, FIG. 2B [1]: 0.0208 µM | IC50 of IL-8 secretion, HaCaT, 10 nM human IL-36α, FIG. 1A [1]: 0.0399 µM | IC50 of IL-8 secretion, HaCaT, 10 nM human IL-36α, FIG. 1B [1]: 0.0466 µM | IC50 of IL-8 secretion, HaCaT, 10 nM human IL-36α, FIG. 1C [1]: 0.0906 µM | IC50 of IL-8 secretion, HaCaT, 10 nM cynomolgus IL-36γ, FIG. 2C [2]: 0.174 µM | IC50 of IL-8 secretion, HaCaT, 10 nM cynomolgus IL-36γ, FIG. 2D [2]: 0.235 µM | IC50 of IL-8 secretion, HaCaT, 10 nM human IL-36γ, FIG. 1D [2]: 0.0451 µM | IC50 of IL-8 secretion, HaCaT, 10 nM human IL-36γ, FIG. 1E [2]: 0.0865 µM | IC50 of IL-8 secretion, HaCaT, 10 nM human IL-36γ, FIG. 1F [2]: 0.129 µM | IC50 of IL-8 secretion, primary human keratinocytes, 6.25 nM human IL-36α, FIG. 4A [3]: 0.0112 µM | IC50 of IL-8 secretion, primary human keratinocytes, 8 nM human IL-36α, FIG. 4B [3]: 0.0346 µM | IC50 of IL-8 secretion, primary human keratinocytes, 8.4 nM human IL-36γ, FIG. 4C [3]: 0.109 µM | IC50 of IL-8 secretion, primary human keratinocytes, 8.4 nM human IL-36γ, FIG. 4D [3]: 0.0479 µM | IC50 of IL-8 secretion, primary human monocytes, 6 nM human IL-36γ, FIG. 5C [4]: 0.038 µM | IC50 of IL-8 secretion, primary human monocytes, 20 nM human IL-36α, FIG. 5A [4]: 0.0465 µM | IC50 of IL-8 secretion, primary human monocytes, 40 nM human IL-36α, FIG. 5B [4]: 0.0691 µM | IC50 of IL-8 secretion, primary human monocytes, 50 nM human IL-36γ, FIG. 5D [4]: 0.0763 µM
B1: human IL-36Ra, truncated (ligand)
chain: VLSGALCFRMKDSALKVLYLHNNQLLAGGLHAGKVIKGEEISVVPNRWLDASLSPVILGVQGGSQCLSCGVGQEPTLTLEPVNIMELYLGAKESKSFTFYRRDMGLTSSFESAAYPGWFLCTVPEADQPVRLTQLPENGGWNAPITDFYFQQCD
